Source: US20180135019A1

Legend:
[1] = target: STRO-1 monoclonal antibody; experiment: competition: STRO-1 pre-incubated with rh-HSC70 overnight at 4 C, flow cytometry of STRO-1 on UE7T-13 cells
[2] = target: STRO-1 monoclonal antibody; experiment: competition: STRO-1 pre-incubated with GST-L393, flow cytometry on UE7T-13 cells, relative to pre-incubation with GST alone
[3] = target: heat shock cognate 70 (HSC70; HSPA8) on the surface of UE7T-13 cells (human) (UniProt P11142); experiment: flow cytometry on UE7T-13 cells, hybridoma supernatant, fluorescein anti-mouse IgM
Sequence of UniProt P11142 (P11142 2-646 limits assumed): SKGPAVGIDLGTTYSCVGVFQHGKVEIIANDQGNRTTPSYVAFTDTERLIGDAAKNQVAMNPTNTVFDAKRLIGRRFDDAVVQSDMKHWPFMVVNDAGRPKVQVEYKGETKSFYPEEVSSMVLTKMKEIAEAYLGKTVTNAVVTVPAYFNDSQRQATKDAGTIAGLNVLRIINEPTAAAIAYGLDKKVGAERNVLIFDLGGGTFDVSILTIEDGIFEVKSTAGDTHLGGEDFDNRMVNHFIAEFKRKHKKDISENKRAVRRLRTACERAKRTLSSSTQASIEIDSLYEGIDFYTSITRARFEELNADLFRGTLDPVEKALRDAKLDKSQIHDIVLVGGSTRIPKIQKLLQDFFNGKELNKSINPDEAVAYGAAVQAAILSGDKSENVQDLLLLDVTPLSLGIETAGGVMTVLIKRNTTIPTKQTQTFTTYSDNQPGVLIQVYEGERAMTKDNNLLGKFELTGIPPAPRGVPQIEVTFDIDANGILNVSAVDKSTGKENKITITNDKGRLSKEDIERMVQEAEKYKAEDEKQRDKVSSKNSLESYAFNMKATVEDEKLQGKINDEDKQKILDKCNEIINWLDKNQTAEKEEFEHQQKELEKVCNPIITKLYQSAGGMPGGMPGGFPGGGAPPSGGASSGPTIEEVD

Question: How did the reduction in MFI [1] turn out when “recombinant human HSC70 (Enzo) (from UniProt A2Q0Z1 1-646)” was run?
Answer: 30%

Question: Which reduction in antibody binding [2] does the source give for “GST-L393 (N-terminal Glutathione S-transferase fusion of the first 393 amino acids of human HSC70) (from UniProt A2Q0Z1 1-393)” here?
Answer: 60%

Question: Which MFI [3] does the source give for STRO-1 monoclonal antibody here?
Answer: 17200
